assay: label from the status in PepcDB records
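Note: failed if final PepcDB status was selected cloned or expressed and not failed if soluble or beyond.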

Protein production, failed:
MLKLTATKQTSQQRSLKMNTLTKLLAATMTLSAQAMAATPLTLDVYNADGNSFHVNATVVYGETEAMVVDTGFTKADALRIGAKVLDSGKTLKTIFISQADPDYYFGAEVLKQMFPQAEVIATPGVKAKIEQKLQGKLDFWAPKMGANAPVKPVLPTAYQGKTLEIDGQTIEIRGTEGELKHRPYLWIPANAAILGNVAVYGNVHLWMADAQTDSERKAWAEQLDEMAALKPKVVIPGHMTPGTAMDSSAITFSQKYLADFAKAKASSKNSAQLIEKMSKIYPDAGLPMALEIGAKVHTGEMKW
MLKNHPKGLISASLTNMGERFGFYIMMGILLLFLQAKFGLSGKEASVIYSIFYASVYVLALVGGIIADSMKNYKGTILVGLIVMAAGYVMLGIPTPTQATGMTPWLIFTCAALAFISFGNGLFKGNLQALVGRMYDNDTYRDKRDSGFSLFYMFINVGAVFAPLVAVAIRNWWVQHNGFVYNADLPERCHQILNGTLPENAKAQVMEMIQAANNGTAVATEGLQEFALKYIQVFSTGFHYAFLAAVFFMAISFLIYIINKHQYPADQKANAVTEAHKDQKQEIKMAADEIRQRIIALCAVFGVVIFFWMSFHQNGVSLTQFAKDYIDLSSVKLDLGFTSIVGAEMFQSINPFFVVTLTPLLLFIFGFLKKRNMEPSTPKKIVIGMFIAALAFVVMAIGSMGLPTFEERNAGVEFTKVSPWLMVLTYMILTIAELFISPMGISFVSKVAPPHLQGIMQGLWLCATAVGNSLLFVGMILYESLSISATWIVFTCACALSMLVMLSMVKWLERVAK
MLKQIRPLYLLLYLTPLMFDIILLYTYLDNGIIYWLDSNYPFSPLILLRKILFYYWNDPFFPGAPLFYSQDSLFMGIIIFLLYNIFHFSLELSEFIYLLLFIYLSQVGFVKLLNIIFEILEKRYSSYFTLIAGLLGGFIYSWGFYSYTPPILGVNYPFFIFYMLFPLVLYFSIKYIFKEKVISFSLIILYLILASGTLFSEFTYLLWSIVLYLFTVVPIWLLSRKPSFVQFTVKNLVIALIVIVAGLEQLYQTYNASIGAYQVGVHGEFLGKPIVIYETEAQYKNFPLSSFISLYSPEKYEIIGVLIFVLIFATILFIKGKTGKFFAPLLFLLLIIGGLSTGIINVLPLYSLHSTPIGFIAIGLMYSIQYIFSGFPVSFVSSLIIGYTLLYILEYLGKRRNYIKILFILIILLLSSSYIYSFRAGEVHPEIRAFNLPVNATNIFYPPPELVSVGNYLSVHDEFYNVIEFPMQYAAGMYDNNGTKAVWYTIYPLSDYIMGQVIKSPALANNAIIKSLANSAIYPIYKYFPAFNITNITNYFVLLGAKYIVLNKQEYPGPGVPLGYAGGYPWNYTKFIEALARTPNITLVMENSYYNVYMINLNVSLLYPSEGLAENLSSDQLFFLYANNMLKAQKQSVIYGLGAINITNISGVHIRVVNDYCNEVYEIQVNASRPFYLVFDEGYSPLWEVTINGEINTHHYIANGYANAWLMPAGNYVATLKLSILQTVHITYLLVFLGFIILVLIYVLQRFKIFRYFKNY
MLKQRIITALLLVPVALYGVFMLPLWGFALFIQGVLMLGAWEWSPLMGVRRISARIAYTLFVGAIIGVLSWLAPYEHLWEGGELSKLIYYTILAGGVWWVVALAMIVNYPSSRRMWSRTRAIVGVFGLLIFIPTWAALVTVRSIDIDESRFFGGWVVLFILLLVWAADVGAYFAGVRYGRNKMMPAVSPGKTMEGLCGGVTLAFVVMMVVAHWTKVPADQFTGYYLTGLFTVVASVFGDLNESMFKRSAGVKDSGSILPGHGGILDRIDSLTAAVPIFTLAYLEFLH
MLKQRVITAMWLLPLMLGMLFYAPQWLWAAFCGLIALIALWEYARMGGLCKIKTNHYLAATLVFGVVAYAGGWMLPNLVWYVVLAFWLAVMPLWLRFKWRLNGGWQVYAVGWLLVMPFWFALVSLRPHPDDALPLLAVMGLVWVADICAYFSGKAFGKHKIAPAISPGKSWEGAIGGAVCVAVYMTAVRSAGWLAFDTGWFDTVLIGLVLTVVSVCGDLLESWLKRAAGIKDSSKLLPGHGGVFDRTDSLIAVISVYAAMMSVLN
MLKRLSVVHSPNGAPMAPSSHEWTDTLKDVYTARAANADLNARYIPLLPVNQRIQHERDRALANMLRQHLSVPPAQARVLEVGCGSGSNLLDLIRLGFDPANLMGNDLMDSRVEQARHRLPQAVPILAGNALDLDLEREGFDVLYQSTVFTSILDAQARRDLAQRMWHWTKPGGGVLWYDFAYNNPRNPNVRGVPLREVRALFPHARIHTARVTLAPPLARRLPATLYAPVNNLCPFLRTHLLCWIGKPAAP
MLKRSIRLLTMGIIWFAISVANSTGRAEKSSDLERYLNTIQDPENIDKPFQPLQAGEYDQAYDYYIQGYYLKAFREALRRAEQNDPFAQTLVARIYMEGCAVPIDGARAALWFGRAAKQGEPQAQLRYGLMLFDGNFIAQNQEIGEEFIRKAVDAGVKEAYYYYGQLLLYKASREKQALAGVFSQSQENEAIDQALKWFLKGAALGDAAAAFAAAKILSLGTLTRPKDDRNARKLMEVAAQNKHLEAQILLAQWLVQGRGGETDFQRAFHLLLSNATKMIAPAQVALARLYRDGIGTKGDIVRAAAWYMLAKHAKIQAPDLEMMLEGMDHAQLEEARKEIIKLLPIF
MLKRTFILIGLVLSFCSLPAQELIQITTRNTALVFRVANQSLRQVYYGPRLADTDVLQKQGNNFPAYSTYGMGEQNEVALHAVHADGNTSTLLNFENVKQESPEPGITLTTISLKDPLYPFQVKLFYKAYEESDLIEQWTIYQHTEKKPVTLYQFASAQLSFKSSSYRLTHFAGDWAGECNMSEVELTEGIKVIDSKLGTRATFFAHPMCLLSLNGRMTEDNGEVIGMALAWPANFKLEFEKNNNQELRVLAGMNPYASHYKLKKGDVFQTPSFLYTYSTKGNGQVSRNFHRWARKYGLRHGENSRYTLMNNWEATYFNFNEPKLKSIIEDAAGMGFELFLLDDGWFGQKHPRNNDDAGLGDWVVNKEKLPNGLGWLVKQCTDNDIKFGIWVEPEMVNPQSELFEKHPDWVIQQPEREHILFRRQLVLDLSNPEVQEFVYKSVHDILKDNPQIAFVKWDCNRAVTNPGSTYLPADEQSHIWIEYGRGLLNVFKKVRDSHPDVHFMLCSGGGGRLDYGSLRYFEEYWPSDNTDALQRILIQWGNSQFFPSIAMCCHVSASPNHQTGRTTPLKFRFDVAMQGALGMDLQPSTMNEKEVIFAKEAIKTYESIRNIVFTGDLYRILSPYEGNRTSMMYVLPDKSRAVFYAYQLKSHIGEVSAPMRFKGLIPDKKYNVKELNIYPGSRAATGSANGQSFSGDFLMNQGLPIGLSGDYSSAVIELEQQ
MLKSGRLNFLKLNINSRLLYSTNPQLTKKVIGIDLGTTNSAVAYIRDSNDKKSATIIENDEGQRTTPSIVAFDVKSSPQNKDQMKTLVGMAAKRQNAINSENTFFATKRLIGRAFNDKEVQRDMAVMPYKIVKCESNGQAYLSTSNGLIQSPSQIASILLKYLKQTSEEYLGEKVNLAVITVPAYFNDSQRQATKDAGKLAGLNVLRVINEPTAAALSFGIDDKRNNGLIAVYDLGGGTFDISILDIEDGVFEVRATNGDTHLGGEDFDNVIVNYIIDTFIHENPEITREEITKNRETMQRLKDVSERAKIDLSHVKKTFIELPFVYKSKHLRVPMTEEELDNMTLSLINRTIPPVKQALKDADIEPEDIDEVILVGGMTRMPKIRSVVKDLFGKSPNSSVNPDETVALGAAIQGGILSGEIKNVLLLDVTPLTLGIETFGGAFSPLIPRNTT
MLKSILKVAVISTIGLSTVACTVNDQRIARYGVGGAAIGALAGTAIAGSTPEAALTGAAVGAIAGSVTGAAVNQQRQQRQRQQRQIVAPHPAMCTYRNRKGQVYSAPCAQKVQTPQLCTYRDGRGVMYQAPCPQRVR
MLKSVNLPVCHSLRNHLAVSSISTTPPSLIIPLLSPIFLRISSSSSNSVILNFSVKASFLVSKILLINLRAGFTGSLILSAGKPPFITSSSKSSIGTTPGVSKSQIFLVSLIICLPFVYPGIGAVPTECFPLSTFIIVLFPTFGYPINATLTLSLLIIFAIFFSSLLRIPVPFLSLAEIKTTGISLFLLYSSAHSLGTKSALFITNKSFLPLSKTILSSFLFLVPMGSLASTTSTTMSASSITSFTIAQAFFCFIPHHRYFKDYGTPWGIRGARVGTLDVGLILGSKPYFFWLHAFSERYYVG
MLKVAIAEDDFRVAQIQEEFLLKIKDVKVMGKALNAKETMELLQREEIDLLLLDNYLPDGIGTDLLPQIHAEFPNVDVIMVTAANENHMLEKAIRNGVSNYLIKPVTLEKFVRTIEDYKRKKQLLHNNNEVNQTLIDNFFGISQTQDIKNLPTGVDPLTLQKVKGIIKGFEEGITIEEMGEQMGASRTTARRYLEYLVATNECTVEYTYGIIGRPERKYRIGRGL

From a protein production outcome set (Wang et al. 2014)
